The test concerns the target human A2A adenosine receptor (A2AAR), residues 1-316, N154Q (human) (UniProt P29274). The experiment in a line: SEC. On the technique in general: In gel filtration, larger molecules generally elute earlier.
Sequence of UniProt P29274 (P29274 1-316 N154Q): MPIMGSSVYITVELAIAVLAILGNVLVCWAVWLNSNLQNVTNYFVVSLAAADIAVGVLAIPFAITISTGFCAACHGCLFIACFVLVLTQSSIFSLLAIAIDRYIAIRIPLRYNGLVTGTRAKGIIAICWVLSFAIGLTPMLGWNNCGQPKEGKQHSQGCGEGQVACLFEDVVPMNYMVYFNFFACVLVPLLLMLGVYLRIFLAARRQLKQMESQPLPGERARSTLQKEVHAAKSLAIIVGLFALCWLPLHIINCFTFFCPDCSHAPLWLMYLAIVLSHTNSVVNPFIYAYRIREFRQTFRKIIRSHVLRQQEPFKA

Substance “mini-Gs, an engineered variant of the Gs protein α-subunit” came in with a percent of the receptor in complex of 95%.

These data come from publication PMC9832913.
